{"source": "patent US10914725B2", "about": "“Culture medium additive, culture medium composition, and method for culturing cells or tissue using same” (NISSAN CHEMICAL INDUSTRIES, LTD., priority 2015, dated 2021)", "molecules": {"B1": {"name": "hHB-EGF: human heparin bindability epithelial cell growth factor (PeproTech) (protein, UniProt Q99075 63-148, looked up)", "Heparin-binding EGF-like …": "DLQEADLDLLRVTLSSKPQALATPNKEEHGKRKKKGKGLGKKRDPCLRKYKDFCIHGECKYVKELRAPSCICHPGYHGERCHGLSL"}, "B2": {"name": "hEGF: human epithelial cell growth factor (PeproTech) (protein, UniProt P01133 23-1207, looked up)", "Pro-epidermal growth factor": "PQHWSCPEGTLAGNGNSTCVGPAPFLIFSHGNSIFRIDTEGTNYEQLVVDAGVSVIMDFHYNEKRIYWVDLERQLLQRVFLNGSRQERVCNIEKNVSGMAINWINEEVIWSNQQEGIITVTDMKGNNSHILLSALKYPANVAVDPVERFIFWSSEVAGSLYRADLDGVGVKALLETSEKITAVSLDVLDKRLFWIQYNREGSNSLICSCDYDGGSVHISKHPTQHNLFAMSLFGDRIFYSTWKMKTIWIANKHTGKDMVRINLHSSFVPLGELKVVHPLAQPKAEDDTWEPEQKLCKLRKGNCSSTVCGQDLQSHLCMCAEGYALSRDRKYCEDVNECAFWNHGCTLGCKNTPGSYYCTCPVGFVLLPDGKRCHQLVSCPRNVSECSHDCVLTSEGPLCFCPEGSVLERDGKTCSGCSSPDNGGCSQLCVPLSPVSWECDCFPGYDLQLDEKSCAASGPQPFLLFANSQDIRHMHFDGTDYGTLLSQQMGMVYALDHDPVENKIYFAHTALKWIERANMDGSQRERLIEEGVDVPEGLAVDWIGRRFYWTDRGKSLIGRSDLNGKRSKIITKENISQPRGIAVHPMAKRLFWTDTGINPRIESSSLQGLGRLVIASSDLIWPSGITIDFLTDKLYWCDAKQSVIEMANLDGSKRRRLTQNDVGHPFAVAVFEDYVWFSDWAMPSVMRVNKRTGKDRVRLQGSMLKPSSLVVVHPLAKPGADPCLYQNGGCEHICKKRLGTAWCSCREGFMKASDGKTCLALDGHQLLAGGEVDLKNQVTPLDILSKTRVSEDNITESQHMLVAEIMVSDQDDCAPVGCSMYARCISEGEDATCQCLKGFAGDGKLCSDIDECEMGVPVCPPASSKCINTEGGYVCRCSEGYQGDGIHCLDIDECQLGEHSCGENASCTNTEGGYTCMCAGRLSEPGLICPDSTPPPHLREDDHHYSVRNSDSECPLSHDGYCLHDGVCMYIEALDKYACNCVVGYIGERCQYRDLKWWELRHAGHGQQQKVIVVAVCVVVLVMLLLLSLWGAHYYRTQKLLSKNPKNPYEESSRDVRSRRPADTEDGMSSCPQPWFVVIKEHQDLKNGGQPVAGEDGQAADGSMQPTSWRQEPQLCGMGTEQGCWIPVSSDKGSCPQVMERSFHMPSYGTQTLEGGVEKPHSLLSANPLWQQRALDPPHQMELTQ", "modifications": "Pro-epidermal growth factor"}}, "test_system": "human ovarian cancer cell line SKOV3", "assay": "Cell proliferation test by dispersing SKOV3 cells with growth factors (Experimental Example 4)", "assay_type": "cell-based", "settings": "10 days", "procedure": "By a method similar to the preparation method of medium composition in Analysis Example 1, a medium composition containing 10 (v/v) % FBS, and 0.03 (w/v) % of low-molecular agar in DMEM (manufactured by Wako Pure Chemical Industries, Ltd.) was prepared.\nThen, human ovarian cancer cell line SKOV3 (manufactured by DS PHARMA BIOMEDICAL CO., LTD.) was suspended in the above-mentioned medium composition containing low-molecular agar at 37,000 cells/mL, and dispensed to the wells of a 96 well flat plane ultra-low attachment surface microplate (manufactured by Corning Incorporated, #3474) at 135 μL per 1 well. The plate was stood in a CO2 incubator (37° C., 5% CO2), and a growth factor was added the next day. A similar operation was performed with 10 (v/v) % FBS-containing DMEM free of low-molecular agar. As a growth factor, human heparin bindability epithelial cell growth factor (hHB-EGF) (manufactured by PeproTech, Inc.) at a final concentration of 30 ng/mL or 100 ng/mL, human epithelial cell growth factor (hEGF) (manufactured by PeproTech, Inc.) and human transforming growth factor α (hTGFα) (manufactured by PeproTech, Inc.) each at a final concentration of 1 ng/mL, 3 ng/mL or 10 ng/mL were added by 15 μL per 1 well.\nSuccessively, the plate was cultured in a standing state in a CO2 incubator (37° C., 5% CO2) for 10 days. As a negative control, DMEM in an amount equal to that of a growth factor was added. CellTiter-Glo Luminescent Cell Viability Assay (manufactured by Promega) (100 μL) was added to the cell culture medium after culturing for 10 days, stood for 10 min at room temperature, and the amount of luminescence was measured by a microplate reader (“FlexStation 3”, manufactured by Molecular Devices) and according to the protocol recommended by Promega. The amount of luminescence of the medium composition alone was subtracted, whereby the number of viable cells was measured.\nThe relative cell number when the amount of luminescence of the negative control is 1 was determined from the amount of luminescence (corresponding to the number of SKOV3 cells) after culturing for 10 days after the addition of the growth factor, and shown in Table 11.", "data": [{"molecule": "B1", "values": [{"measurement": "relative cell number (negative control = 1)", "setting": "growth factor 30 ng/mL, low-molecular agar 0 (w/v)%", "result": 1.358}, {"measurement": "relative cell number (negative control = 1)", "setting": "growth factor 30 ng/mL, low-molecular agar 0.03 (w/v)%", "result": 1.774}, {"measurement": "relative cell number (negative control = 1)", "setting": "growth factor 100 ng/mL, low-molecular agar 0 (w/v)%", "result": 1.451}, {"measurement": "relative cell number (negative control = 1)", "setting": "growth factor 100 ng/mL, low-molecular agar 0.03 (w/v)%", "result": 1.748}]}, {"molecule": "B2", "values": [{"measurement": "relative cell number (negative control = 1)", "setting": "growth factor 1 ng/mL, low-molecular agar 0 (w/v)%", "result": 1.380}, {"measurement": "relative cell number (negative control = 1)", "setting": "growth factor 1 ng/mL, low-molecular agar 0.03 (w/v)%", "result": 1.413}, {"measurement": "relative cell number (negative control = 1)", "setting": "growth factor 3 ng/mL, low-molecular agar 0 (w/v)%", "result": 1.392}, {"measurement": "relative cell number (negative control = 1)", "setting": "growth factor 3 ng/mL, low-molecular agar 0.03 (w/v)%", "result": 1.745}, {"measurement": "relative cell number (negative control = 1)", "setting": "growth factor 10 ng/mL, low-molecular agar 0 (w/v)%", "result": 1.678}, {"measurement": "relative cell number (negative control = 1)", "setting": "growth factor 10 ng/mL, low-molecular agar 0.03 (w/v)%", "result": 1.984}]}]}
